Laboratory results reported in patent US7544477B2, “Circularly permutated, interaction-activated proteins” (KaloBios, Inc., priority 2000, dated 2009).

Key:
[1] = target: hetero-dimerizing leucine zipper helix from the c-jun subunit of the AP-1 transcription factor; assay: cell-based or functional assay
[2] = system: TG1 cells; assay: Activation of TEM-1 β-lactamase fragment complementation by disulfide-assisted fos-jun interaction (plating on ampicillin); type: cell-based, E. coli; conditions: without a stabilizing peptide; same expression conditions
Method: Cysteines were added to the sequences of α197 and ω198, between the break-point termini and the linkers leading to the heterologous interactors.
Disulfide formation was made to be more dependent on the heterologous interaction by two modifications. First, disulfide formation can be inhibited by inclusion of a reducing agent in the growth medium. […] Secondly, the cysteines were shifted by one residue each away form the break-point and into the β-lactamase sequence, so that they became separated in the native fold by an additional ˜8 Å.

Chain of hetero-dimerizing leucine zipper helix from the c-jun subunit of the AP-1 transcription factor (P05412 280-308): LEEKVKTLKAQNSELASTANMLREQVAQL

“hetero-dimerizing leucine zipper helix from the c-fos subunit of the AP-1 transcription factor (peptide)” showed a Hi Amp (max ampicillin with >10% plating), break-point A227/G228, +Fos/Jun [1] of 50 µg/mL, a Hi Amp (max ampicillin with >10% plating), break-point A227/G228, +S-S, +Fos/Jun [1] of 200 µg/mL and a Hi Amp (max ampicillin with >10% plating), break-point E63/E64, +S-S, +Fos/Jun [1] of 25 µg/mL. The Hi Amp (max ampicillin with >10% plating), break-point E197/L198, +Fos/Jun [1] was 50 µg/mL, the Hi Amp (max ampicillin with >10% plating), break-point E197/L198, +S-S, +Fos/Jun [1] was 100 µg/mL and the Hi Amp (max ampicillin with >10% plating), break-point G253/K254, +Fos/Jun [1] was 50 µg/mL. For the same molecule, the Hi Amp (max ampicillin with >10% plating), break-point G253/K254, +S-S, +Fos/Jun [1] was 400 µg/mL, the Hi Amp (max ampicillin with >10% plating), break-point K215/V216, +Fos/Jun [1] was 25 µg/mL and the Hi Amp (max ampicillin with >10% plating), break-point K215/V216, +S-S, +Fos/Jun [1] was 100 µg/mL. For the same molecule, the Hi Amp (max ampicillin with >10% plating), break-point N52/S53, +S-S, +Fos/Jun [1] was 25 µg/mL, the Hi Amp (max ampicillin with >10% plating), break-point P174/N175, +Fos/Jun [1] was 50 µg/mL and the Hi Amp (max ampicillin with >10% plating), break-point P174/N175, +S-S, +Fos/Jun [1] was 200 µg/mL. It also gave a Hi Amp (max ampicillin with >10% plating), break-point Q99/N100, +S-S, +Fos/Jun [1] of 25 µg/mL, an activation index, break-point P174/N175, fos-jun with disulfide [1] of 1e+07 and an activation index, α197/ω198 with break-point cysteines, 10 mM DTT, 100 µg/ml ampicillin [1] of over 1000 fold. For the same molecule, the activation index, α197/ω198 with cysteines shifted by one residue, 50 µg/ml ampicillin [1] was over 100000, the ampicillin concentration of recovery, α197/ω198 with break-point tri-peptides, strain DH5α [1] was 800 µg/mL and the ampicillin concentration of recovery, α197/ω198 with break-point tri-peptides, strain TG1 [1] was 400 µg/mL. The plating efficiency on 25 µg/ml ampicillin, wild-type α197-jun + fos-ω198 [1] was 30%, the plating efficiency on 50 µg/ml ampicillin, α197-fos + jun-ω198 alone [1] was 1% and the plating efficiency on 50 µg/ml ampicillin, α197-fos + jun-ω198 with GRE-trxA in trans [1] was 100%. For the same molecule, the plating efficiency on 50 µg/ml ampicillin, α197/ω198 with cysteines shifted by one residue [1] was 10%, the plating efficiency on 100 µg/ml ampicillin, wild-type α197-jun + fos-ω198 (colonies per cell) [1] was under 1e-06 and the plating efficiency on 400 µg/ml ampicillin, break-point G253/K254, fos-jun with disulfide [1] was over 25%.

B1: wild-type TEM-1 β-lactamase: intact TEM-1 β-lactamase of E. coli (protein, UniProt P62593 24-286, looked up)
Beta-lactamase TEM: HPETLVKVKDAEDQLGARVGYIELDLNSGKILESFRPEERFPMMSTFKVLLCGAVLSRVDAGQEQLGRRIHYSQNDLVEYSPVTEKHLTDGMTVRELCSAAITMSDNTAANLLLTTIGGPKELTAFLHNMGDHVTRLDRWEPELNEAIPNDERDTTMPAAMATTLRKLLTGELLTLASRQQLIDWMEADKVAGPLLRSALPAGWFIADKSGAGERGSRGIIAALGPDGKPSRIVVIYTTGSQATMDERNRQIAEIGASLIKHW
For B1, the “Ampicillin concentration on which cells plate” value [2] was at most 1000 µg/mL.
